The test system of one data set is rabbit PRP. Briefly: ADP-induced platelet aggregation in rabbit PRP. The format is cell-based. To be noted: 20 μM ADP. As for the experimental part: Column fractions obtained during purification were assayed for activity using fresh human platelet rich plasma (PRP) prepared from blood obtained from human volunteers who had had no medication for at least two weeks. Blood (36 ml) was drawn into 4 ml of 0.1 M citrate and centrifuged at 150×g for 20 minutes. The supernatant, PRP, was removed and the remaining blood was centrifuged at 10,000 RPM to obtain platelet poor plasma (PPP). Platelet counts were adjusted to 250,000 platelets/μl using a Coulter counter. A Helena four channel aggregometer was used to monitor platelet aggregation. Inhibition of ADP-induced platelet aggregation was monitored at 37° C. by adding venom fractions one minute prior to the addition of ADP (10-20 μM final concentration). […] Rabbit and canine PRP was prepared by the same procedure and used in the studies described below.
CN inhibited ADP-induced platelet aggregation in human, canine, and rabbit PRPs (FIG. 6). Empty circles represent human platelet rich plasma, solid circles represent canine PRP, and empty triangles represent rabbit PRP. Varying concentration of CN were preincubated for one minute with PRP prior to the addition of ADP.

The next data set concerns MDA-MB-435 cells. Description: Growth of MDA-MB-435 cells in vitro on Matrigel-coated plates. The format is cell-based, human. As for the experimental part:
MDA-MB-435 cells (0.3×10^6/ml) were added to each well of a 6-well cell culture plates coated with 1/100 dilution of Matrigel . Cells were then treated with CN at various concentration. Growth curves of MDA-MB-435 cells in vitro without CN (circles), and with CN at 100 nM (triangles), and 500 nM (diamonds) are illustrated. Six-well cell culture plates coated with Matrigel (1/100 dilute) were seeded with 3 ml of MDA-MB-435 cell suspension (0.3×10^6/ml). Cell density was determined every 24 hours.

The test system of another data set is OVCAR-5 cells. Description: Adhesion of OVCAR-5 cells to vitronectin coated plate. The format is cell-based, human. An excerpt: FIG. 21. CN and other antagonists of αvβ5 inhibits adhesion of OVCAR-5 cells to vitronectin. Adhesion of cancer cells to the matrix is one of the critical steps of cancer spreading and metastasis. It is well established that integrin αvβ5 mediates adhesion of cells to vitronectin.

In a further data set the target is purified αvβ5 (Homo sapiens, UniProt P06756+P18084). Description: Solid-phase binding of contortrostatin to purified αvβ5 (modified ELISA). As to conditions: 100 ng αvβ5 per well. The method, then: Experiment 3: Detection of the binding of contortrostatin to αvβ5: Direct evidence that contortrostatin binds to αvβ5 was collected by solid-phase binding assay using purified αvβ5 and a modified ELISA. Soluble αvβ5 (100 ng) was immobilized on wells of a 96-well plate at 4° C. overnight. Excess protein was washed off, and unbound sites were blocked with 1% BSA/PBS. Contortrostatin at various concentrations was allowed to bind to the coated plate at room temperature for one hour. After three washes with PBS, the bound contortrostatin molecules were detected with 1:1,000 antiserum against contortrostatin. Goat anti-rabbit antibody conjugated with alkaline phosphotase was used as a secondary antibody. The bound antibodies were quantitated by applying substrate disodium p-nitrophenyl phosphate (pNPP) and determining the light absorbance at 405 nm 15 minutes after the initiation of the chromagenic reaction. The background is defined by the binding of antiserum against the disintegrin to immobilized αvβ5. Specific binding is obtained by substrating the background from the total binding. Analyses of each concentration of ligand were performed in triplicate.
For orientation: An ELISA detects its analyte on a solid surface through an enzyme-linked reagent.

For another data set, the system named is T24 cells. Description: Phosphotyrosine immunoblot, T24 cells. The format is cell-based, human. The method, then: Cell culture, preparation and stimulation—T24 cells were maintained in RPMI 1640 medium containing 5% fetal bovine serum, and MDA-MB-435 and 293 cells were maintained in Dulbecco's modified Eagle's medium with 10% serum at 37° C. in 5% CO2. Cells were washed with phosphate-buffered saline (PBS) and starved in the appropriate serum-free medium for 6 h at 37° C. Cells were detached by brief treatment with 0.05% trypsin/0.02% EDTA in PBS and collected by centrifugation, resuspended in soybean trypsin inhibitor (1 mg/ml in serum-free medium), and washed in 2% bovine serum albumin/serum-free medium. Cells were maintained in suspension for 1 h in 2% bovine serum albumin/serum-free medium at 37° C. with end-over-end agitation. Quiescent cells (3×10^6/ml) were treated with disintegrins or other reagents while in suspension, or were allowed to adhere to Matrigel (Becton Dickinson, Bedford, Mass.) diluted 1:100 with serum-free medium during treatment.
Lysate preparation and immunoprecipitation—Suspended and adherent cells were washed twice with cold PBS and lysed in cold lysis buffer (50 mM Tris, pH 8.0, 150 mM NaCl, 1% Nonidet P-40, 0.5% deoxycholate, 0.1% SDS, protease inhibitor cocktail, 1 mM sodium pyrophosphate, 1 mM sodium orthovanadate, 50 mM sodium fluoride). After 10-15 min incubation on ice, insoluble material was removed by centrifugation at 14,000 RPM in a microcentrifuge for 15 min. Supernatants were collected and total protein concentrations standardized by the BCA protein assay (Pierce, Rockford, Ill.). Immunoprecipitation was carried out by incubating whole cell lysates (200 μg total protein) with 1.25 μg anti-FAK or anti-CAS mAb 4-6 h at 4° C. followed by 20 μl protein G-agarose overnight at 4° C. Immunoprecipitates were washed 4 times in lysis buffer without inhibitors and dissociated by adding SDS-PAGE sample buffer and boiling 5 min. Whole cell lysates (30 μg total protein) or immunoprecipitates were resolved by 7.5% SDS-polyacrylamide gel electrophoresis and transferred to nitrocellulose membranes. […]
In general terms: In western blotting, separated proteins are transferred to a membrane and probed.

Data set [1] relates to adhesion formation during wound healing. Briefly: Rabbit model of adhesion formation (uterine horns). The format is in vivo. To be noted: Alzet pumps, 10 μl/hr (36 μg/ml). As for the experimental part:
In preliminary studies in a rabbit model of adhesion formation, abrasion and devascularization of the uterine horns of rabbits were employed to induce adhesion formation during wound healing in untreated animals [Rodgers, K. et al., Int. J. Fertil. 35:40 (1990)]. Alzet pumps were employed to continuously deliver CN at a rate of 10 μl/hr (36 μg/ml). […] Therefore, compositions and methods for preventing adhesion formation whereby an amount of CN effective to prevent adhesion formation is administered to a patient in need of such treatment are also contemplated as within the scope of the present invention.

The subject of a further data set is canine platelets. As to conditions: cited from earlier work.

purified αvβ5, sequence (P06756 31-889 limits assumed): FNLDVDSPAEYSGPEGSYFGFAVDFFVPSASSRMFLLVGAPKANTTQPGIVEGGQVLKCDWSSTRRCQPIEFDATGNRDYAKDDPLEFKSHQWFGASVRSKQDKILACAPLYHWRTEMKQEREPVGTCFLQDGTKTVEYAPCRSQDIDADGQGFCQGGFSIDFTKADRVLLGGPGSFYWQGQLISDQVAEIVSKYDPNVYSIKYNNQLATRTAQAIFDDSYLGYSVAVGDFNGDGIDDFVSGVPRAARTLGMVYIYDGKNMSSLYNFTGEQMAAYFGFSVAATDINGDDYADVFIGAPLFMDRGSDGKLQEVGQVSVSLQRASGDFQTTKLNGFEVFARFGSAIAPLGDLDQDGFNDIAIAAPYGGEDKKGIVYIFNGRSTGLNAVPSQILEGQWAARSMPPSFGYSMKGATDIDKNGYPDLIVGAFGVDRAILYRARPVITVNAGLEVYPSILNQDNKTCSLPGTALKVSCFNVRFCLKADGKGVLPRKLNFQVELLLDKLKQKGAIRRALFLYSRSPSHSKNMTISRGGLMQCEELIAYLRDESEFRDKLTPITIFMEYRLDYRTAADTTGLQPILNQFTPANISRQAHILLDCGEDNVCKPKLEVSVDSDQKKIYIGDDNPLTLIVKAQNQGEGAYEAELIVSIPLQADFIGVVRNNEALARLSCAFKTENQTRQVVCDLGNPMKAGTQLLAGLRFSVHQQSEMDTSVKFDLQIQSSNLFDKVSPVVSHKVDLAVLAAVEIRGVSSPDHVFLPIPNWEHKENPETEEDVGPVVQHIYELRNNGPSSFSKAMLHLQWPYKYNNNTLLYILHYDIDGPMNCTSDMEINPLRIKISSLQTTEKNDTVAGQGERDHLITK
purified αvβ5, sequence (P18084 24-799): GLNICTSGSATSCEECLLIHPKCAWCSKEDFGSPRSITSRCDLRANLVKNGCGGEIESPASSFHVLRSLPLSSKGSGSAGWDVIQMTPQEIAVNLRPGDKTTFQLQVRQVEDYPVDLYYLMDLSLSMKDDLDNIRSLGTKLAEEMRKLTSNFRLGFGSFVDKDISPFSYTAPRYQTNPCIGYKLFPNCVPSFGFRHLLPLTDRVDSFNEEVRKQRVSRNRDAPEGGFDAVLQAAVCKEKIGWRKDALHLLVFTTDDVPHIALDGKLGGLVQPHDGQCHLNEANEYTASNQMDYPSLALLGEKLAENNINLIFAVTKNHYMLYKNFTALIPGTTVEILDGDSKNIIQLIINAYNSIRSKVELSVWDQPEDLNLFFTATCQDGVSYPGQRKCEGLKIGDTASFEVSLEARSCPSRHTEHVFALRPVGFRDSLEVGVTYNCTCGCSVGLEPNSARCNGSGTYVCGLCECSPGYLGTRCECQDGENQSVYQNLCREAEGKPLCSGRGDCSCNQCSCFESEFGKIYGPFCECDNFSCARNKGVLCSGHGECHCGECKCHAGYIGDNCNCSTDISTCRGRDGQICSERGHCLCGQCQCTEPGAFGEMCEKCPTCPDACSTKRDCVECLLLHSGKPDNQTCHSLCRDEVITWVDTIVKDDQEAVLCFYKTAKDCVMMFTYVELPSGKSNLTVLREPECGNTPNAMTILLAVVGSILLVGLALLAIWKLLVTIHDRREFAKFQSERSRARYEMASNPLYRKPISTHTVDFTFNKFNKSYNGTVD

B1: contortrostatin (protein)
chain: DAPANPCCDAATCKLTTGSQCADGLCCDQCKFMKEGTVCRRARGDDLDDYCNGISAGCPRNPFHA
On to B1, for which, in the data set on rabbit PRP, the “IC50 of ADP-induced rabbit platelet aggregation” value came out at 17.3 µg/mL. Further, the “cytotoxicity during in vitro culture” value in the data set on MDA-MB-435 cells is given as “no direct cytotoxicity”. Further, in the data set with MDA-MB-435 cells (CN at 100 nM and 500 nM), the “proliferation of MDA-MB-435 cells” value was “proliferate equally well as control cells”. Besides, in the data set with OVCAR-5 cells, the “adhesion of OVCAR-5 cells to vitronectin” value is reported as “inhibited”. In addition, the “binding to immobilized αvβ5” value in the data set with purified αvβ5 is “binds to αvβ5 in a dose-dependent and saturable manner”. The “tyrosine phosphorylation in cells adherent to Matrigel” value in the data set with T24 cells is recorded as “significant additional increase”. Also, the “tyrosine phosphorylation at high concentration” value in the data set with T24 cells (1000 nM) is listed as “reduced levels of tyrosine phosphorylation”. Also, the “tyrosine phosphorylation of 120-140 kDa proteins” value in the data set with T24 cells (suspended cells) is given as “also observed”. Besides, the adhesion formation result in data set [1] is reported as “decreased adhesion formation”. Also, in the data set on canine platelets, the “50% inhibition (IC50) of platelet aggregation, canine platelets” value was 2.2 µg/mL.

The record behind these values is patent US6710030B1, “Contortrostain (CN) and methods for its use in preventing metastasis and other conditions” (University of Southern California, priority 1993, dated 2004).
